Legend:
[1] = molecular target: Thermoproteota archaeon TasR (TaTasR) (Thermoproteota archaeon isolate LB_CRA_1); experiment: cryo-EM structure; TasR tigRNA1 RNP (16 uM) mixed with 60-bp target DNA (8 uM), 29 mM HEPES-KOH pH 7.9, 149 mM KCl, 5 mM MgCl2, 42 C for 1 h; 2D classification of the final particles with a large box and a 300 A circular mask
[2] = molecular target: Thermoproteota archaeon TasR (TaTasR), TIGR-associated protein with an N-terminal RuvC nuclease domain and a Nop domain (Thermoproteota archaeon isolate LB_CRA_1); experiment: cryo-EM structure; TasR tigRNA1 RNP (16 uM) mixed with a 60-bp DNA target (8 uM) in 29 mM HEPES-KOH pH 7.9, 149 mM KCl, 5 mM MgCl2; 42°C for 1 hour, then on ice for 3 hours; post-cleavage product complex

| stoichiometry N [1] | stoichiometry N [2] | Substance |
| --- | --- | --- |
| 2 |  | Thermoproteota archaeon TasR (TaTasR) (enzyme) |
|  | 2 | Thermoproteota archaeon TasR (TaTasR), TIGR-associated protein with an N-terminal RuvC nuclease domain and a Nop domain (enzyme) |

Source: publication PMC12045711
